Data from publication PMC6374351, “The Fusion Activity of IM30 Rings Involves Controlled Unmasking of the Fusogenic Core” (Frontiers in Plant Science, 2019).
Blank lines part the entries; values can stand above or below the molecule they belong to.

Tests used:
Experiment in all cases: SEC; Superdex 200 HR 16/60 GL, 4°C, 0.5 mL/min, 20 mM HEPES pH 7.6; apparent masses from Kav against marker proteins; apparent oligomeric state = extrapolated mass / calculated monomer mass (with His-tag)
[1] = target: IM30 α1-3 (helices 1-3) (Synechocystis sp. PCC 6803)
[2] = target: IM30 α1-4 (helices 1-4) (Synechocystis sp. PCC 6803)
[3] = target: the molecule itself

stoichiometry N [1]: 1.76
Molecule: IM30 α1-3 (helices 1-3) (domain or fragment)

stoichiometry N [2]: 2.2
Molecule: IM30 α1-4 (helices 1-4) (domain or fragment)

B1: inner membrane-associated protein of 30 kDa (IM30) wt, Synechocystis sp. PCC 6803 (natural protein, UniProt Q55707 1-267, looked up)
chain: MGLFDRLGRVVRANLNDLVSKAEDPEKVLEQAVIDMQEDLVQLRQAVARTIAEEKRTEQRLNQDTQEAKKWEDRAKLALTNGEENLAREALARKKSLTDTAAAYQTQLAQQRTMSENLRRNLAALEAKISEAKTKKNMLQARAKAAKANAELQQTLGGLGTSSATSAFERMENKVLDMEATSQAAGELAGFGIENQFAQLEASSGVEDELAALKASMAGGALPGTSAATPQLEAAPVDSSVPANNASQDDAVIDQELDDLRRRLNNL
notes: IM30 (Vipp1) of the cyanobacterium Synechocystis sp; PCC 6803, wild type, helices 1-7; the last residue is 267 (α4-7 = amino acids 147-267); Forms rings of variable size; also called Vipp1; full-length protein; source: heterologously expressed and purified (as in Fuhrmann et al., 2009a)
binding result [3]: binds
